Laboratory results published in publication PMC5593919, “Functional characterization of Vip3Ab1 and Vip3Bc1: Two novel insecticidal proteins with differential activity against lepidopteran pests” (Scientific Reports, 2017).

Legend:
[1] = biological target: Vip3_BA chimera (N-terminal domain of Vip3Bc1 and C-terminal domain of Vip3Ab1) (Bacillus thuringiensis); test: SEC; analytical SEC, TSKgel SuperSW3000, 50 mM sodium phosphate pH 7.0 with 250 mM NaCl, 75 µl/min, 3 µl at 150 µg/ml, fluorescence detection; size from retention time against molecular weight standards; proteins not digested
[2] = biological target: Vip3Ab1 (Bacillus thuringiensis); test: as above
[3] = biological target: Vip3_AB chimera (N-terminal domain of Vip3Ab1 and C-terminal domain of Vip3Bc1) (Bacillus thuringiensis); test: as above
[4] = biological target: C-terminal ~65 kDa domain of Vip3Ab1, expressed from Leu222 (Bacillus thuringiensis); test: as above
[5] = biological target: Vip3Ab1 after overnight processing with H. zea midgut enzymes (~20 kDa and ~65 kDa products together) (Bacillus thuringiensis); test: SEC; purified Vip3 protein digested overnight with H. zea gut fluid (50 mM MOPS pH 10, 30 °C), stopped with protease inhibitors, then analytical SEC on TSKgel SuperSW3000 in 50 mM sodium phosphate pH 7.0 with 250 mM NaCl; size from retention time
[6] = biological target: T1, ~65 kDa C-terminal product of Vip3Bc1 after gut enzyme processing (Bacillus thuringiensis, UniProt A0A290WPI2 214-803); test: as above; settings: both partners purified
T1 construct: Vip3Bc1, GenBank MF543028, product from the cleavage 210NVTK/EVIE (processed at 214Glu); source: Vip3Bc1 from Pseudomonas fluorescens, purified, then digested overnight with H. zea gut enzymes
T1 sequence: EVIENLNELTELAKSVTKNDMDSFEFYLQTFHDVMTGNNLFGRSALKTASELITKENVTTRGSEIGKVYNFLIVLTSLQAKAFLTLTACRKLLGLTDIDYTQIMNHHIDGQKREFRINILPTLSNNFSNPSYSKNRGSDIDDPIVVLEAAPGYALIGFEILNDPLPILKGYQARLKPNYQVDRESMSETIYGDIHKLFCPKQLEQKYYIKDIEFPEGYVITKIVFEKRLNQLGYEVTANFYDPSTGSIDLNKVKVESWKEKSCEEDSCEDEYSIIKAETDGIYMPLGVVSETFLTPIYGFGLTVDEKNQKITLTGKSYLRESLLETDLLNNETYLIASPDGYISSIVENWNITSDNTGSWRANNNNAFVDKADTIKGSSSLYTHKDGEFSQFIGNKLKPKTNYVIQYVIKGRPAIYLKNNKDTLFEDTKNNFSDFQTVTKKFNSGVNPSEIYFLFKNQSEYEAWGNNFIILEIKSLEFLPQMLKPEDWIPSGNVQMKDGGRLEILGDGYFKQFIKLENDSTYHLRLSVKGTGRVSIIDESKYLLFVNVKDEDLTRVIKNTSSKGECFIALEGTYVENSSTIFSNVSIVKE

[7] = biological target: the molecule itself; test: SEC; analytical SEC, TSKgel SuperSW3000, 50 mM sodium phosphate pH 7.0 with 250 mM NaCl, 75 µl/min, 3 µl at 150 µg/ml, fluorescence detection; size from retention time against molecular weight standards; proteins not digested
[8] = biological target: the molecule itself; test: SEC; purified Vip3 protein digested overnight with H. zea gut fluid (50 mM MOPS pH 10, 30 °C), stopped with protease inhibitors, then analytical SEC on TSKgel SuperSW3000 in 50 mM sodium phosphate pH 7.0 with 250 mM NaCl; size from retention time

Q: Which results are given for “Vip3_BA chimera (N-terminal domain of Vip3Bc1 and C-terminal domain of Vip3Ab1) (from UniProt A0A290WPI2 2-223)”?
A: percent tetrameric [1]: 50%; stoichiometry N [1]: 4

Q: Vip3Ab1 (natural protein) was tested. Which stoichiometry N [2] did it give?
A: 4

Q: “Vip3_AB chimera (N-terminal domain of Vip3Ab1 and C-terminal domain of Vip3Bc1) (from UniProt A0A290WPI2 224-803)” was tested. Which stoichiometry N [3] did it give?
A: 4

Q: For “C-terminal ~65 kDa domain of Vip3Ab1, expressed from Leu222 (domain or fragment)”, which stoichiometry N [4] is on record?
A: 2

Q: “Vip3Ab1 after overnight processing with H. zea midgut enzymes (~20 kDa and ~65 kDa products together) (complex)” was tested. Which stoichiometry N [5] did it give?
A: 4

B1: ~20 kDa N-terminal product of Vip3Bc1 after gut enzyme processing (domain or fragment)
chain: ALPSFIDYFNGIYGFATGIKDIMGMIFKTDTGGSNLTLDEILKNQNLLNDISGKLDGINGDLGDLIAQGNLNSELAKELLKISNEQNQMLNHVNAQLNAINSTLNIYLPKITSMLNEVMKQNHVLSLQIEFLSKQLQEISDKLDIINLNVLINSTLTEITPAYQRIKYVNEKFDELTSTVEKNPKSYQDNVTK
notes: Vip3Bc1, GenBank MF543028, product between the cleavage at 21Ala and the cleavage 210NVTK/EVIE (processed at 214Glu); source: Vip3Bc1 from Pseudomonas fluorescens, purified, then digested overnight with H. zea gut enzymes
Q: Does B1 bind [6]?
A: binds

B2: Vip3Bc1 (natural protein)
chain: VQKWMQRMIIVDNNKLNVRALPSFIDYFNGIYGFATGIKDIMGMIFKTDTGGSNLTLDEILKNQNLLNDISGKLDGINGDLGDLIAQGNLNSELAKELLKISNEQNQMLNHVNAQLNAINSTLNIYLPKITSMLNEVMKQNHVLSLQIEFLSKQLQEISDKLDIINLNVLINSTLTEITPAYQRIKYVNEKFDELTSTVEKNPKSYQDNVTKEVIENLNELTELAKSVTKNDMDSFEFYLQTFHDVMTGNNLFGRSALKTASELITKENVTTRGSEIGKVYNFLIVLTSLQAKAFLTLTACRKLLGLTDIDYTQIMNHHIDGQKREFRINILPTLSNNFSNPSYSKNRGSDIDDPIVVLEAAPGYALIGFEILNDPLPILKGYQARLKPNYQVDRESMSETIYGDIHKLFCPKQLEQKYYIKDIEFPEGYVITKIVFEKRLNQLGYEVTANFYDPSTGSIDLNKVKVESWKEKSCEEDSCEDEYSIIKAETDGIYMPLGVVSETFLTPIYGFGLTVDEKNQKITLTGKSYLRESLLETDLLNNETYLIASPDGYISSIVENWNITSDNTGSWRANNNNAFVDKADTIKGSSSLYTHKDGEFSQFIGNKLKPKTNYVIQYVIKGRPAIYLKNNKDTLFEDTKNNFSDFQTVTKKFNSGVNPSEIYFLFKNQSEYEAWGNNFIILEIKSLEFLPQMLKPEDWIPSGNVQMKDGGRLEILGDGYFKQFIKLENDSTYHLRLSVKGTGRVSIIDESKYLLFVNVKDEDLTRVIKNTSSKGECFIALEGTYVENSSTIFSNVSIVKE
notes: Vip3Bc1, vegetative insecticidal protein of Bacillus thuringiensis, GenBank MF543028; expressed with only the first methionine removed (N-terminus VQKWM at 2); Gene was synthesized, codon biased for maize; source: Pseudomonas fluorescens, purified (ammonium sulfate precipitation, anion exchange)
Q: B2 was tested. Which “stoichiometry N” value [7] did it give?
A: 4

B3: C-terminal ~65 kDa domain of Vip3Bc1, expressed from Leu222 (domain or fragment)
chain: LTELAKSVTKNDMDSFEFYLQTFHDVMTGNNLFGRSALKTASELITKENVTTRGSEIGKVYNFLIVLTSLQAKAFLTLTACRKLLGLTDIDYTQIMNHHIDGQKREFRINILPTLSNNFSNPSYSKNRGSDIDDPIVVLEAAPGYALIGFEILNDPLPILKGYQARLKPNYQVDRESMSETIYGDIHKLFCPKQLEQKYYIKDIEFPEGYVITKIVFEKRLNQLGYEVTANFYDPSTGSIDLNKVKVESWKEKSCEEDSCEDEYSIIKAETDGIYMPLGVVSETFLTPIYGFGLTVDEKNQKITLTGKSYLRESLLETDLLNNETYLIASPDGYISSIVENWNITSDNTGSWRANNNNAFVDKADTIKGSSSLYTHKDGEFSQFIGNKLKPKTNYVIQYVIKGRPAIYLKNNKDTLFEDTKNNFSDFQTVTKKFNSGVNPSEIYFLFKNQSEYEAWGNNFIILEIKSLEFLPQMLKPEDWIPSGNVQMKDGGRLEILGDGYFKQFIKLENDSTYHLRLSVKGTGRVSIIDESKYLLFVNVKDEDLTRVIKNTSSKGECFIALEGTYVENSSTIFSNVSIVKE
notes: Vip3Bc1, GenBank MF543028, beginning at Leu222; also called C-terminus of Vip3Bc1; C-terminal region of Vip3Bc1; source: Pseudomonas fluorescens, purified
Q: How did the “stoichiometry N” value [7] turn out when B3 was run?
A: 2

B4: Vip3Bc1 after overnight processing with H. zea midgut enzymes (~20 kDa and ~65 kDa products together) (complex)
chain 1: B1 chain
chain 2: T1 sequence
notes: Vip3Bc1 ~20 kDa product, as m9; Vip3Bc1 ~65 kDa product, as m10; Vip3Bc1 was processed much more slowly than Vip3Ab1; also called processed Vip3Bc1; source: Vip3Bc1 from Pseudomonas fluorescens, purified, then digested overnight with H. zea gut enzymes; copies: 4 + 4
Q: For B4, which “stoichiometry N” value [8] is on record?
A: 4
